Test results reported in the RNAGym collection of RNA variant scans (doi:10.1101/gr.219683.116).

B1: mRNA-splicing (parent)
chain: AGUUGCUGCUGGGAGCUCCAGCACAGUGAAAUGGACAGAAGGGCAGAGCAA

Variants of: B1
Experiment: exon inclusion enrichment index; higher = more inclusion; WT1 exon 5 minigene, HEK293

| Variant | exon inclusion enrichment index |
| --- | --- |
| G5A C6U U7A G8U C9A A39C | 0.0192 |
| G5A C6U U7A G8U C9A A39G | 0.00842 |
| G5A C6U U7A G8U C9A C19G | 0.0674 |
| G5A C6U U7A G8U C9A C19U | 0.00395 |
| G5A C6U U7A G8U C9A C19A | 0.0415 |
| G5A C6U U7A G8U C9A G33C G34C | 0.043 |
| G5A C6U U7A G8U C9A G33C G34A | 0.0386 |
| G5A C6U U7A G8U C9A G33C G34U | 0.0325 |
| G5A C6U U7A G8U C9A G38A A39G | 0.0704 |
| G5A C6U U7A G8U C9A G38A A39U | 0.00385 |
| G5A C6U U7A G8U C9A G38A A39C | 0.0573 |
| G5A C6U U7A G8U C9A G41C G42C | 0.417 |
| G5A C6U U7A G8U C9A G41C G42A | 0.139 |
| G5A C6U U7A G8U C9A G41C G42U | 0.445 |
| G5A C6U U7A G8U C9A C19A A20U | 0.0348 |
| G5A C6U U7A G8U C9A C19A A20G | 0.00271 |
| G5A C6U U7A G8U C9A C19A A20C | 0.0154 |
| G5A C6U U7A G8U C9A A39C A40G | 0.0817 |
| G5A C6U U7A G8U C9A A39C A40C | 0.204 |
| G5A C6U U7A G8U C9A A39C A40U | 0.0208 |
| G5A C6U U7A G8U C9A G11A G12A | 0.00659 |
| G5A C6U U7A G8U C9A G11A G12U | 0.01 |
| G5A C6U U7A G8U C9A G11A G12C | 0.0285 |
| G5A C6U U7A G8U C9A A47U | 0.0348 |

| Variant | exon inclusion enrichment index |
| --- | --- |
| G5A C6U U7A G8U C9A A47G | 0.0115 |
| G5A C6U U7A G8U C9A A47C | 0.133 |
| G5A C6U U7A G8U C9A A39G A40U | 0.00682 |
| G5A C6U U7A G8U C9A A39G A40C | 0.102 |
| G5A C6U U7A G8U C9A A39G A40G | 0.00821 |
| G5A C6U U7A G8U C9A C44U A45G | 0.0383 |
| G5A C6U U7A G8U C9A C44U A45U | 0.0242 |
| G5A C6U U7A G8U C9A C44U A45C | 0.1 |
| G5A C6U U7A G8U C9A A40U G41A | 0.00198 |
| G5A C6U U7A G8U C9A A40U G41U | 0.0246 |
| G5A C6U U7A G8U C9A A40U G41C | 0.359 |
| G5A C6U U7A G8U C9A G34A A35U | 0.00832 |
| G5A C6U U7A G8U C9A G34A A35C | 0.0538 |
| G5A C6U U7A G8U C9A G34A A35G | 0.00212 |
| G5A C6U U7A G8U C9A G28U | 0.0124 |
| G5A C6U U7A G8U C9A G28C | 0.0466 |
| G5A C6U U7A G8U C9A G28A | 0.0134 |
| G5A C6U U7A G8U C9A C24G | 0.0851 |
| G5A C6U U7A G8U C9A C24U | 0.00831 |
| G5A C6U U7A G8U C9A C24A | 0.0667 |
| G5A C6U U7A G8U C9A G28U A29G | 0.0696 |
| G5A C6U U7A G8U C9A G28U A29U | 0.00744 |
| G5A C6U U7A G8U C9A G28U A29C | 0.0467 |
| G5A C6U U7A G8U C9A G34U A35C | 0.0139 |

| Variant | exon inclusion enrichment index |
| --- | --- |
| G5A C6U U7A G8U C9A G34U A35U | 0.007 |
| G5A C6U U7A G8U C9A G34U A35G | 0.014 |
| G5A C6U U7A G8U C9A A35G | 0.017 |
| G5A C6U U7A G8U C9A A35C | 0.00811 |
| G5A C6U U7A G8U C9A A35U | 0.00487 |
| G5A C6U U7A G8U C9A C16U U17C | 0.0363 |
| G5A C6U U7A G8U C9A C16U U17G | 0.0217 |
| G5A C6U U7A G8U C9A C16U U17A | 0.0252 |
| G5A C6U U7A G8U C9A G21U | 0.0639 |
| G5A C6U U7A G8U C9A G21C | 0.0844 |
| G5A C6U U7A G8U C9A G21A | 0.071 |
| G5A C6U U7A G8U C9A G42C G43U | 0.352 |
| G5A C6U U7A G8U C9A G42C G43C | 0.451 |
| G5A C6U U7A G8U C9A G42C G43A | 0.295 |
| G5A C6U U7A G8U C9A A45U G46A | 0.0424 |
| G5A C6U U7A G8U C9A A45U G46U | 0.0214 |
| G5A C6U U7A G8U C9A A45U G46C | 0.0684 |
| G5A C6U U7A G8U C9A C44U | 0.00684 |
| G5A C6U U7A G8U C9A C44G | 0.115 |
| G5A C6U U7A G8U C9A C44A | 0.286 |
| G5A C6U U7A G8U C9A G12A G13U | 0.000604 |
| G5A C6U U7A G8U C9A G12A G13A | 0.027 |
| G5A C6U U7A G8U C9A G12A G13C | 0.0112 |
| G5A C6U U7A G8U C9A G11A | 0.00945 |

| Variant | exon inclusion enrichment index |
| --- | --- |
| G5A C6U U7A G8U C9A G11C | 0.191 |
| G5A C6U U7A G8U C9A G11U | 0.0798 |
| G5A C6U U7A G8U C9A G15U C16U | 0.00626 |
| G5A C6U U7A G8U C9A G15U C16G | 0.0108 |
| G5A C6U U7A G8U C9A G15U C16A | 0.0179 |
| G5A C6U U7A G8U C9A G46U A47C | 0.376 |
| G5A C6U U7A G8U C9A G46U A47U | 0.0891 |
| G5A C6U U7A G8U C9A G46U A47G | 0.0512 |
| G5A C6U U7A G8U C9A A40G G41U | 0.0544 |
| G5A C6U U7A G8U C9A A40G G41C | 0.455 |
| G5A C6U U7A G8U C9A A40G G41A | 0.0181 |
| G5A C6U U7A G8U C9A G46A A47C | 0.232 |
| G5A C6U U7A G8U C9A G46A A47G | 0.0237 |
| G5A C6U U7A G8U C9A G46A A47U | 0.0808 |
| G5A C6U U7A G8U C9A G26C U27G | 0.442 |
| G5A C6U U7A G8U C9A G26C U27C | 0.489 |
| G5A C6U U7A G8U C9A G26C U27A | 0.0751 |
| G5A C6U U7A G8U C9A C22G A23U | 0.00095 |
| G5A C6U U7A G8U C9A C22G A23G | 0.0166 |
| G5A C6U U7A G8U C9A C22G A23C | 0.0334 |
| G5A C6U U7A G8U C9A G12U G13C | 0.00721 |
| G5A C6U U7A G8U C9A G12U G13U | 0.00049 |
| G5A C6U U7A G8U C9A G12U G13A | 0.00185 |
| G5A C6U U7A G8U C9A A37U G38A | 0.0163 |

| Variant | exon inclusion enrichment index |
| --- | --- |
| G5A C6U U7A G8U C9A A37U G38C | 0.0673 |
| G5A C6U U7A G8U C9A A37U G38U | 0.0205 |
| G5A C6U U7A G8U C9A G21U C22U | 0.00572 |
| G5A C6U U7A G8U C9A G21U C22A | 0.0356 |
| G5A C6U U7A G8U C9A G21U C22G | 0.0561 |
| G5A C6U U7A G8U C9A G42A G43C | 1.53 |
| G5A C6U U7A G8U C9A G42A G43U | 1.03 |
| G5A C6U U7A G8U C9A G42A G43A | 1.16 |
| G5A C6U U7A G8U C9A A37C G38C | 0.0761 |
| G5A C6U U7A G8U C9A A37C G38U | 0.00922 |
| G5A C6U U7A G8U C9A A37C G38A | 0.0896 |
| G5A C6U U7A G8U C9A A45C G46C | 0.0306 |
| G5A C6U U7A G8U C9A A45C G46U | 0.0134 |
| G5A C6U U7A G8U C9A A45C G46A | 0.0341 |
| G5A C6U U7A G8U C9A A47C G48A | 0.0387 |
| G5A C6U U7A G8U C9A A47C G48C | 0.0967 |
| G5A C6U U7A G8U C9A A47C G48U | 0.0767 |
| G5A C6U U7A G8U C9A C16A U17C | 0.0702 |
| G5A C6U U7A G8U C9A C16A U17G | 0.0322 |
| G5A C6U U7A G8U C9A C16A U17A | 0.0573 |
| G5A C6U U7A G8U C9A G43A C44A | 0.441 |
| G5A C6U U7A G8U C9A G43A C44G | 0.476 |
| G5A C6U U7A G8U C9A G43A C44U | 0.072 |
| G5A C6U U7A G8U C9A A45G G46A | 0.447 |

| Variant | exon inclusion enrichment index |
| --- | --- |
| G5A C6U U7A G8U C9A A45G G46C | 0.131 |
| G5A C6U U7A G8U C9A A45G G46U | 0.0592 |
| G5A C6U U7A G8U C9A G11C G12C | 0.0512 |
| G5A C6U U7A G8U C9A G11C G12U | 0.0197 |
| G5A C6U U7A G8U C9A G11C G12A | 0.0128 |
| G5A C6U U7A G8U C9A G15U | 0.0601 |
| G5A C6U U7A G8U C9A G15A | 0.0278 |
| G5A C6U U7A G8U C9A G15C | 0.156 |
| G5A C6U U7A G8U C9A C18G C19U | 0.00519 |
| G5A C6U U7A G8U C9A C18G C19A | 0.0894 |
| G5A C6U U7A G8U C9A C18G C19G | 0.0648 |
| G5A C6U U7A G8U C9A A35C C36G | 0.0383 |
| G5A C6U U7A G8U C9A A35C C36A | 0.0286 |
| G5A C6U U7A G8U C9A A35C C36U | 0.00346 |
| G5A C6U U7A G8U C9A G38U A39G | 0.03 |
| G5A C6U U7A G8U C9A G38U A39C | 0.045 |
| G5A C6U U7A G8U C9A G38U A39U | 0.00248 |
| G5A C6U U7A G8U C9A G28A A29U | 0.00845 |
| G5A C6U U7A G8U C9A G28A A29G | 0.00353 |
| G5A C6U U7A G8U C9A G28A A29C | 0.0311 |
| G5A C6U U7A G8U C9A A37C | 0.285 |
| G5A C6U U7A G8U C9A A37G | 0.17 |
| G5A C6U U7A G8U C9A A37U | 0.0684 |
| G5A C6U U7A G8U C9A A37G G38U | 0.0165 |

| Variant | exon inclusion enrichment index |
| --- | --- |
| G5A C6U U7A G8U C9A A37G G38C | 0.113 |
| G5A C6U U7A G8U C9A A37G G38A | 0.0869 |
| G5A C6U U7A G8U C9A G46C | 0.0876 |
| G5A C6U U7A G8U C9A G46U | 0.0405 |
| G5A C6U U7A G8U C9A G46A | 0.0879 |
| G5A C6U U7A G8U C9A A31G U32C | 0.424 |
| G5A C6U U7A G8U C9A A31G U32G | 0.0411 |
| G5A C6U U7A G8U C9A A31G U32A | 0.855 |
| G5A C6U U7A G8U C9A G33U | 0.00963 |
| G5A C6U U7A G8U C9A G33C | 0.108 |
| G5A C6U U7A G8U C9A G33A | 0.00613 |
| G5A C6U U7A G8U C9A C19U A20C | 0.078 |
| G5A C6U U7A G8U C9A C19U A20U | 0.00982 |
| G5A C6U U7A G8U C9A C19U A20G | 0.00852 |
| G5A C6U U7A G8U C9A A39U A40C | 0.142 |
| G5A C6U U7A G8U C9A A39U A40G | 0.0054 |
| G5A C6U U7A G8U C9A A39U A40U | 0.0161 |
| G5A C6U U7A G8U C9A G42U | 0.107 |
| G5A C6U U7A G8U C9A G42C | 0.399 |
| G5A C6U U7A G8U C9A G42A | 0.446 |
| G5A C6U U7A G8U C9A G13A | 0.144 |
| G5A C6U U7A G8U C9A G13C | 0.0162 |
| G5A C6U U7A G8U C9A G13U | 0.00122 |
